Here are results for one substance from patent US20240156915A1.

This assay has as its target exenatide (Gila monster) (UniProt P26349).

Chain of exenatide (Gila monster) (P26349 48-86): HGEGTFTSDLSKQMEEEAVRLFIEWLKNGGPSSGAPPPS

pepsin (enzyme) showed a Residual content of exenatide in percent (%) of 0%.
